This passage reports agonist activity, % of the max response of Trp-Lys-Tyr-Met-Val-Met (SEQ ID NO: 114), EC50 (nM), cAMP production (HTRF) and Max efficacy in % of control peptide (cAMP production, HTRF) (% of control peptide) results from patent US9950027.

Positions count from the first letter of the chain named. Side-chain parts run from the residue outwards. [ ]: non-standard residue; d: D form.

Common to all, as to assay: cell-based or functional assay
Experiment [1] has as its target recombinant human type 2 Formyl peptide receptor (FPR2) (human) (UniProt P25090).
Experiment [2] addresses human GLP-1 receptor (human) (UniProt P43220).
The target of experiment [3] is human GLP-2 receptor (human) (UniProt O95838).
human GLP-2 receptor (human), sequence (O95838 whole entry): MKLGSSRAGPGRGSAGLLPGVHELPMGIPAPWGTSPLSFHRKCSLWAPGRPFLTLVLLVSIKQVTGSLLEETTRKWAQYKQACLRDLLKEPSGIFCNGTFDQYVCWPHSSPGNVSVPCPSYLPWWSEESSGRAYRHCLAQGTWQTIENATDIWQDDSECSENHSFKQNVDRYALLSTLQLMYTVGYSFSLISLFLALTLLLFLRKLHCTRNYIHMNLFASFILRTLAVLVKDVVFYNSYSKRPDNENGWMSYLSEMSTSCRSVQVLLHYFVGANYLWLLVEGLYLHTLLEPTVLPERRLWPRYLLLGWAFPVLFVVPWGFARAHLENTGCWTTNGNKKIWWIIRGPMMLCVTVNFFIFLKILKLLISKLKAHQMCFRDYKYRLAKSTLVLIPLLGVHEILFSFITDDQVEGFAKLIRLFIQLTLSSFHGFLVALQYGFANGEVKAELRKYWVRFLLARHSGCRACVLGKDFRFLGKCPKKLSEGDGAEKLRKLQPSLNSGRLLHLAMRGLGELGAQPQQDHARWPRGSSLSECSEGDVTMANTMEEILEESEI

human GLP-1 receptor (human), sequence (P43220 24-463): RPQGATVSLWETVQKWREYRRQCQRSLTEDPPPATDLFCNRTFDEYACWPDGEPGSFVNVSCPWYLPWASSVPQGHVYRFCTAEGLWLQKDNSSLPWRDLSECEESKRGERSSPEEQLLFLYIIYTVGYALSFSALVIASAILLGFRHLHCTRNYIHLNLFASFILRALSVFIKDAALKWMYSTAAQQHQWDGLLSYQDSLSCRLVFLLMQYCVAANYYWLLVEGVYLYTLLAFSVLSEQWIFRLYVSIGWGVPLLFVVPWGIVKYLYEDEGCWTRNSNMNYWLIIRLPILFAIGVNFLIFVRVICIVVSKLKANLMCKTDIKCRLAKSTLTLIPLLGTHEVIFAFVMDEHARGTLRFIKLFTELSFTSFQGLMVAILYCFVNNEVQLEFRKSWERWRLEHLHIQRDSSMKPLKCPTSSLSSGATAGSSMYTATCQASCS
recombinant human type 2 Formyl peptide receptor (FPR2) (human), sequence (P25090 whole entry): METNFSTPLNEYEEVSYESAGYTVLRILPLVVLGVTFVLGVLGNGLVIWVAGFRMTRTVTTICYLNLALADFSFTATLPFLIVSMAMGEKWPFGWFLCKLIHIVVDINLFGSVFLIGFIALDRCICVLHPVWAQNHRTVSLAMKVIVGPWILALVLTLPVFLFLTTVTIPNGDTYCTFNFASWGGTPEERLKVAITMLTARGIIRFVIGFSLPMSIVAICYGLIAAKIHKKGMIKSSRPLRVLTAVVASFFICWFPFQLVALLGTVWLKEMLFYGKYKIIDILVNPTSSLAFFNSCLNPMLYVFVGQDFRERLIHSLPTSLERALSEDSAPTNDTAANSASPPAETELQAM

B1: Analogue 6 (Example 4, BAP-modified AnxA1 N-terminal fragment): … (peptide)
peptide: Ac-AMVSEFLKQ[dA]WFIENEEQEYVQTVKKK([Lys-Ac])-NH2
On to B1, for which the agonist activity, % of the max response of Trp-Lys-Tyr-Met-Val-Met (SEQ ID NO: 114) in experiment [1] came to 33%.

B2: Analogue 2 (Example 4, BAP-modified GLP-1 analogue): … (peptide)
peptide: Ac-HGEGTFTSDVSSYLEGQAAKEFIAWLVKGRGK([Lys-Lys-Ac])-NH2
Turning to B2, in experiment [2], the EC50 (nM), cAMP production (HTRF) was 0.04 nM and the Max efficacy in % of control peptide (cAMP production, HTRF) (% of control peptide) stood at 102.

B3: Analogue 3 (Example 4, BAP-modified GLP-2 analogue): … (peptide)
peptide: HADGSFSDEMNTILDNLAARDFINWLIQTKITDK
modifications: N-terminal acetyl; Lys-Lys-Ac attached to the epsilon-amino group of the C-terminal Lys34; C-terminal amide
Regarding B3, in experiment [3], the EC50 (nM), cAMP production (HTRF) came out at 3.4 nM and the Max efficacy in % of control peptide (cAMP production, HTRF) (% of control peptide) is 101.

B4: Analogue 4 (Example 4, BAP-modified GLP-2 analogue): … (peptide)
peptide: B3 peptide with A2G
modifications: N-terminal acetyl; Lys-Lys-Ac attached to the epsilon-amino group of the C-terminal Lys34; C-terminal amide
In experiment [3], B4 yielded an EC50 (nM), cAMP production (HTRF) of 5.9 nM and a Max efficacy in % of control peptide (cAMP production, HTRF) (% of control peptide) of 102.

B5: Analogue 5 (Example 4, BAP-modified GLP-2 analogue): … (peptide)
peptide: B3 peptide
modifications: N-terminal acetyl; D-Ala at position 2; Lys-Lys-Ac attached to the epsilon-amino group of the C-terminal Lys34; C-terminal amide
Regarding B5, in experiment [3], the EC50 (nM), cAMP production (HTRF) amounted to 8.9 nM and the Max efficacy in % of control peptide (cAMP production, HTRF) (% of control peptide) turned out to be 95.1.
